Data as given in the supplement of paper PMC10065799, “High-throughput profiling of sequence recognition by tyrosine kinases and SH2 domains using bacterial peptide display” (eLife, 2023).
One block for each sequence: values may come before it.

Assays:
AncSZ = assay: phosphorylation enrichment, bacterial display (enrichment ratio); higher = better substrate or ligand; peptides without Tyr show the background
c-Abl (mouse) = assay: as above
c-Src = assay: as above
Fyn = Fyn (UniProt P06241); assay: as above
MERTK = MERTK (UniProt Q12866); assay: as above
EPHB2 = EPHB2 (UniProt P29323); assay: as above
FGFR3 = FGFR3 (UniProt P22607); assay: as above
Fer (mouse) = assay: as above
EPHB1 = EPHB1 (UniProt P54762); assay: as above
Hck = Hck (UniProt P08631); assay: as above
FGFR1 = FGFR1 (UniProt P11362); assay: as above
Jak2 = Jak2 (UniProt O60674); assay: as above
Fes = Fes (UniProt P07332); assay: as above
SHP2-C SH2 = assay: SH2 binding enrichment of the phosphorylated peptide, bacterial display (enrichment ratio); higher = better substrate or ligand; peptides without Tyr show the background
Grb2 SH2 = Grb2 SH2 (UniProt P62993); assay: as above
c-Src SH2 = assay: as above
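For SH2 binding enrichment of the phosphorylated peptide, bacterial display in this document: peptide library displayed on the E. coli surface as eCPX fusions, selected cells deep-sequenced, score is each peptide's frequency after selection divided by its frequency in the input.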
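For phosphorylation enrichment, bacterial display in this document: 11-residue human phosphosite peptides and single-mutation variants displayed on the E. coli surface, counted by deep sequencing, each peptide's frequency after selection divided by its frequency in the unselected input library; frequency after pTyr selection over input frequency; kinase dosed for 20-30% of maximal phosphorylation in three min.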

Chain of FGFR3 (P22607 whole entry, looked up): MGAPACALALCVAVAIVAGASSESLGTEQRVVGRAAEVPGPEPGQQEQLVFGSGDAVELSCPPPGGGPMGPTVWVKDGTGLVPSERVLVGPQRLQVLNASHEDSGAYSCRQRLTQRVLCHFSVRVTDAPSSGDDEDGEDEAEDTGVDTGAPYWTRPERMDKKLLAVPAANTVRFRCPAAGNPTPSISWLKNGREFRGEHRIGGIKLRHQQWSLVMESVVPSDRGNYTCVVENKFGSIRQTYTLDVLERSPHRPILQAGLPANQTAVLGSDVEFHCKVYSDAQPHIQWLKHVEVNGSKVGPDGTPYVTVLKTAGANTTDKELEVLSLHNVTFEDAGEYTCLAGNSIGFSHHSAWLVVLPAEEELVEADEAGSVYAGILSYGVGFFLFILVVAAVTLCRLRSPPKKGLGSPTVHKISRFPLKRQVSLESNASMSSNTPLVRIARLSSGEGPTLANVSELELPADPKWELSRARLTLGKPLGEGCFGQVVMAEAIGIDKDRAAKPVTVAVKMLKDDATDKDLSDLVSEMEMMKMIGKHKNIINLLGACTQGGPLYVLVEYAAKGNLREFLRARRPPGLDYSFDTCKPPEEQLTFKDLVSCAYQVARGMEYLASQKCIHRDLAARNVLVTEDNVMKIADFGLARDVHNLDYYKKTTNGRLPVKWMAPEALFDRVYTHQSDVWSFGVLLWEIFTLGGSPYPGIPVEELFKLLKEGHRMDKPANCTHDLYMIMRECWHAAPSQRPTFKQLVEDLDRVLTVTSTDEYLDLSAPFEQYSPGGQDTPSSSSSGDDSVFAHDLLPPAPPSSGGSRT
Chain of FGFR1 (P11362 whole entry, looked up): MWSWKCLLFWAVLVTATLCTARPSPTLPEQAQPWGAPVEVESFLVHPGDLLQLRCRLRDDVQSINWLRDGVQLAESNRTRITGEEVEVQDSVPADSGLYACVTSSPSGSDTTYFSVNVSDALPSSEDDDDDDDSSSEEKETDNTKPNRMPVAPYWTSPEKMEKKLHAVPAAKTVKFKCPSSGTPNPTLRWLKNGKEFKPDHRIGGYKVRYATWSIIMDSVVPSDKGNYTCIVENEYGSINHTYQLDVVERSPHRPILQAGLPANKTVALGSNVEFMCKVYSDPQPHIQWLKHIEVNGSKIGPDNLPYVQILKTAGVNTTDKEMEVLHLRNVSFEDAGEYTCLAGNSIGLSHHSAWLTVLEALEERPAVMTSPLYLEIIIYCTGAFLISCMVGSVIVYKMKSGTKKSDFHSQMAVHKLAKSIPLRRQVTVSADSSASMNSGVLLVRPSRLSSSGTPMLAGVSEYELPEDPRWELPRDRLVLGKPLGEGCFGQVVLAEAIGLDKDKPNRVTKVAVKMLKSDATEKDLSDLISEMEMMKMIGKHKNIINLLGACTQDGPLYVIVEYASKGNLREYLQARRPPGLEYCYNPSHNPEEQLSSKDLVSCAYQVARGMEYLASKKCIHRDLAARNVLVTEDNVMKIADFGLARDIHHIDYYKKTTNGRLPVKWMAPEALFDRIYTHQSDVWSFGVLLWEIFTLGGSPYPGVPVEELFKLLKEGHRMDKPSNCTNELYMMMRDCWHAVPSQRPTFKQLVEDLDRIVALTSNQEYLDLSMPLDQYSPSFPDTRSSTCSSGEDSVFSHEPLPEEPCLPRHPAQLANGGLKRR
Chain of EPHB2 (P29323 whole entry, looked up): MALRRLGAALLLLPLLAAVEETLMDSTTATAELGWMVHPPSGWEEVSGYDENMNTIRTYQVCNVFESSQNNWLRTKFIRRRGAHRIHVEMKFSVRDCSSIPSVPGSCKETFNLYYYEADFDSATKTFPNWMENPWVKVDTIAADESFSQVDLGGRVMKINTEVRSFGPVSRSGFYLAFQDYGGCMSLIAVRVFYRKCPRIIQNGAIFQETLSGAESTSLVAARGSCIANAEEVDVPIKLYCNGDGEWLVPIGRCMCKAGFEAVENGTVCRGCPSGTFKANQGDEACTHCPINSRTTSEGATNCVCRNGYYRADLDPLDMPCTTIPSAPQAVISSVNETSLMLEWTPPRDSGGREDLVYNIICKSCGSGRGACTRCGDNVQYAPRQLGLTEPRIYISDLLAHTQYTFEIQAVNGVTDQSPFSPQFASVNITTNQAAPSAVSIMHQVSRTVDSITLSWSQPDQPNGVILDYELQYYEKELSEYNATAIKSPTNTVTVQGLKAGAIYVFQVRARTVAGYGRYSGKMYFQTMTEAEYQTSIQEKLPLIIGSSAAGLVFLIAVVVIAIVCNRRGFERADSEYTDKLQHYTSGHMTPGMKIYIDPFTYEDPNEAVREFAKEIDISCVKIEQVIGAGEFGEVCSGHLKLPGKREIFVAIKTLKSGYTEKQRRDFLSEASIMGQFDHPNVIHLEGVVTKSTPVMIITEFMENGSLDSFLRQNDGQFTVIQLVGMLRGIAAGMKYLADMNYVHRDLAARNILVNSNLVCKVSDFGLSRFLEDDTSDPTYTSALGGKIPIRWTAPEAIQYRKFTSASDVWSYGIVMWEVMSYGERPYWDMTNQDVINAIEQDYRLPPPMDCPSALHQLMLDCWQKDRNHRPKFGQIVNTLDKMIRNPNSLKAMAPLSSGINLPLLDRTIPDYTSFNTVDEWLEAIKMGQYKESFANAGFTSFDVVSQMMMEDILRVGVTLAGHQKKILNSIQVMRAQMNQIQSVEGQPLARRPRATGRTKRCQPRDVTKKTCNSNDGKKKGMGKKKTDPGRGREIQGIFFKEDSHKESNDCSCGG
Chain of Jak2 (O60674 whole entry, looked up): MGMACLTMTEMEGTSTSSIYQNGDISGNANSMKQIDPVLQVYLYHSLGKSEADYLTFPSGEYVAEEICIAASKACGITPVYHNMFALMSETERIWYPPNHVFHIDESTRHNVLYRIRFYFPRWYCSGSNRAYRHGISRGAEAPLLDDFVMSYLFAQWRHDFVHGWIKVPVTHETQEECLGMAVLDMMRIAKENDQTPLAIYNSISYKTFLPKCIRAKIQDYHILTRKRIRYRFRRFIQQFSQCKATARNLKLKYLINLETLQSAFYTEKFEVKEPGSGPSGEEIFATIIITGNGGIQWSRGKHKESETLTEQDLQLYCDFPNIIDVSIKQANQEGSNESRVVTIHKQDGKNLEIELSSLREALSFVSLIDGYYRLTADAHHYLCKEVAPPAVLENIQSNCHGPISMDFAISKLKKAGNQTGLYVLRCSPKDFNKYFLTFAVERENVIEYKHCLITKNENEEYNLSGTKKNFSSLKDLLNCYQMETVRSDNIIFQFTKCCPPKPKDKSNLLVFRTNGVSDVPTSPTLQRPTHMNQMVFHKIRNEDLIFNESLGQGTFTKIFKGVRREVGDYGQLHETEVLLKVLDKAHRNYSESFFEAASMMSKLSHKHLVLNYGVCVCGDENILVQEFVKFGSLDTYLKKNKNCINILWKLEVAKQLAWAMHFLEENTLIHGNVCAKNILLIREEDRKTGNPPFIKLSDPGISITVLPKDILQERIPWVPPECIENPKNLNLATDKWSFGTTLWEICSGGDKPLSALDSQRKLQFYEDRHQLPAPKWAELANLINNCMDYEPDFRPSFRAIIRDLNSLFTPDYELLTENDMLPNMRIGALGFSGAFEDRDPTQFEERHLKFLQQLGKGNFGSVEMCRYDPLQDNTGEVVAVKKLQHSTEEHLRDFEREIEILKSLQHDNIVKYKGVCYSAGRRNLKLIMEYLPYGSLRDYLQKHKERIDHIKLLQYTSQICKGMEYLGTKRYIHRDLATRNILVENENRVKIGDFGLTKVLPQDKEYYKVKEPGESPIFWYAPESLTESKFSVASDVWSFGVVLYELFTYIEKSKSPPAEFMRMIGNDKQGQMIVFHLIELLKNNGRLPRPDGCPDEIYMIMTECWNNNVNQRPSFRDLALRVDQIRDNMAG
Chain of Fes (P07332 whole entry, looked up): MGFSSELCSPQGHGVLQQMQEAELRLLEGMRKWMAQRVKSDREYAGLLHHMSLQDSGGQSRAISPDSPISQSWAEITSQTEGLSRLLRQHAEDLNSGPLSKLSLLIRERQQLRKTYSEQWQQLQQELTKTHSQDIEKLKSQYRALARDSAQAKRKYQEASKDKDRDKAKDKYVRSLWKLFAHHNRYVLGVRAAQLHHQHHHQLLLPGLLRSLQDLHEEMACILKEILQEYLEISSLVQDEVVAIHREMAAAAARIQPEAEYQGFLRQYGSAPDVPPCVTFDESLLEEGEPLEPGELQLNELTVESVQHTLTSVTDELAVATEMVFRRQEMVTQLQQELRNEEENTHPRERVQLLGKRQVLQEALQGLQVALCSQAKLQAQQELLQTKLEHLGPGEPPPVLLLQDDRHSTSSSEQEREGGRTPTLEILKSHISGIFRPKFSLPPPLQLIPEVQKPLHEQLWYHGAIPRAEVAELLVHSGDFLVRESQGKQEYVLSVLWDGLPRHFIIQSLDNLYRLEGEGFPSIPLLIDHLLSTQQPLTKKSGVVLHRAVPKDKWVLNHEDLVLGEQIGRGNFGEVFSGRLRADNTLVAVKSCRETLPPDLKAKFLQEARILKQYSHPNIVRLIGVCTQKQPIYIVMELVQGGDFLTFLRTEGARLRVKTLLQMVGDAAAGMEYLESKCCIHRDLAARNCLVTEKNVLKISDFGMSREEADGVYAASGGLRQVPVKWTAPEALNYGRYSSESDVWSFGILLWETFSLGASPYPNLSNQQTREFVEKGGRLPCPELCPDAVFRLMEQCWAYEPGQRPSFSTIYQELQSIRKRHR

- SH2 binding enrichment (SHP2-C SH2): 18.8
- SH2 binding enrichment (Grb2 SH2): 0.903
- SH2 binding enrichment (c-Src SH2): 6.01
Sequence: NGSKAYAYVHF [PABPC5_Y147_G146A]
- phosphorylation enrichment (AncSZ): 1.06
- phosphorylation enrichment (c-Abl (mouse)): 0.634
- phosphorylation enrichment (c-Src): 0.401
- phosphorylation enrichment (Fyn): 0.4
- phosphorylation enrichment (MERTK): 0.656
- phosphorylation enrichment (EPHB2): 0.52
- phosphorylation enrichment (FGFR3): 0.646
- phosphorylation enrichment (Fer (mouse)): 0.637
- phosphorylation enrichment (EPHB1): 0.514
- phosphorylation enrichment (Hck): 0.438
- phosphorylation enrichment (FGFR1): 0.568
- phosphorylation enrichment (Jak2): 0.796
- phosphorylation enrichment (Fes): 1.03

- SH2 binding enrichment (SHP2-C SH2): 0.665
- SH2 binding enrichment (Grb2 SH2): 0.878
- SH2 binding enrichment (c-Src SH2): 0.627
Sequence: ATPKGYELDAS [OTC_Y223_P225L]
- phosphorylation enrichment (AncSZ): 0.966
- phosphorylation enrichment (c-Abl (mouse)): 0.697
- phosphorylation enrichment (c-Src): 0.405
- phosphorylation enrichment (Fyn): 0.478
- phosphorylation enrichment (MERTK): 0.491
- phosphorylation enrichment (EPHB2): 0.551
- phosphorylation enrichment (FGFR3): 0.557
- phosphorylation enrichment (Fer (mouse)): 0.465
- phosphorylation enrichment (EPHB1): 0.442
- phosphorylation enrichment (Hck): 0.442
- phosphorylation enrichment (FGFR1): 0.466
- phosphorylation enrichment (Jak2): 1
- phosphorylation enrichment (Fes): 0.903

- SH2 binding enrichment (SHP2-C SH2): 0.763
- SH2 binding enrichment (Grb2 SH2): 0.84
- SH2 binding enrichment (c-Src SH2): 0.674
Sequence: DFLEKYFKFGC [NNMT_Y24_S29C_YF]
- phosphorylation enrichment (AncSZ): 1.11
- phosphorylation enrichment (c-Abl (mouse)): 0.768
- phosphorylation enrichment (c-Src): 0.549
- phosphorylation enrichment (Fyn): 0.435
- phosphorylation enrichment (MERTK): 0.507
- phosphorylation enrichment (EPHB2): 0.545
- phosphorylation enrichment (FGFR3): 0.73
- phosphorylation enrichment (Fer (mouse)): 0.554
- phosphorylation enrichment (EPHB1): 0.55
- phosphorylation enrichment (Hck): 0.417
- phosphorylation enrichment (FGFR1): 0.497
- phosphorylation enrichment (Jak2): 0.993
- phosphorylation enrichment (Fes): 1.38

- SH2 binding enrichment (SHP2-C SH2): 0.505
- SH2 binding enrichment (Grb2 SH2): 0.811
- SH2 binding enrichment (c-Src SH2): 0.471
Sequence: KQELVYPNKKL [OPTN_Y356_T357P]
- phosphorylation enrichment (AncSZ): 0.576
- phosphorylation enrichment (c-Abl (mouse)): 0.561
- phosphorylation enrichment (c-Src): 0.349
- phosphorylation enrichment (Fyn): 0.324
- phosphorylation enrichment (MERTK): 0.374
- phosphorylation enrichment (EPHB2): 0.358
- phosphorylation enrichment (FGFR3): 0.417
- phosphorylation enrichment (Fer (mouse)): 0.323
- phosphorylation enrichment (EPHB1): 0.33
- phosphorylation enrichment (Hck): 0.293
- phosphorylation enrichment (FGFR1): 0.356
- phosphorylation enrichment (Jak2): 0.443
- phosphorylation enrichment (Fes): 0.743

- SH2 binding enrichment (SHP2-C SH2): 1.36
- SH2 binding enrichment (Grb2 SH2): 1.56
- SH2 binding enrichment (c-Src SH2): 1.09
Sequence: QKPLGYFRVNL [GALE_Y104_D103G_YF]
- phosphorylation enrichment (AncSZ): 1.2
- phosphorylation enrichment (c-Abl (mouse)): 0.67
- phosphorylation enrichment (c-Src): 0.409
- phosphorylation enrichment (Fyn): 0.657
- phosphorylation enrichment (MERTK): 0.577
- phosphorylation enrichment (EPHB2): 0.635
- phosphorylation enrichment (FGFR3): 0.722
- phosphorylation enrichment (Fer (mouse)): 0.399
- phosphorylation enrichment (EPHB1): 0.518
- phosphorylation enrichment (Hck): 0.648
- phosphorylation enrichment (FGFR1): 0.839
- phosphorylation enrichment (Jak2): 1.16
- phosphorylation enrichment (Fes): 1.12

- SH2 binding enrichment (SHP2-C SH2): 0.751
- SH2 binding enrichment (Grb2 SH2): 0.885
- SH2 binding enrichment (c-Src SH2): 2.32
Sequence: GNHISYYQSDG [CACNA1C_Y1757_V1755I]
- phosphorylation enrichment (AncSZ): 0.821
- phosphorylation enrichment (c-Abl (mouse)): 0.403
- phosphorylation enrichment (c-Src): 0.496
- phosphorylation enrichment (Fyn): 0.514
- phosphorylation enrichment (MERTK): 0.411
- phosphorylation enrichment (EPHB2): 0.4
- phosphorylation enrichment (FGFR3): 0.569
- phosphorylation enrichment (Fer (mouse)): 0.367
- phosphorylation enrichment (EPHB1): 0.668
- phosphorylation enrichment (Hck): 0.397
- phosphorylation enrichment (FGFR1): 0.655
- phosphorylation enrichment (Jak2): 0.484
- phosphorylation enrichment (Fes): 0.569

- SH2 binding enrichment (SHP2-C SH2): 1.64
- SH2 binding enrichment (Grb2 SH2): 1.49
- SH2 binding enrichment (c-Src SH2): 1.26
Sequence: GRSTFYWPSPR [GAGE12J_Y10_R13S_YF]
- phosphorylation enrichment (AncSZ): 0.643
- phosphorylation enrichment (c-Abl (mouse)): 0.726
- phosphorylation enrichment (c-Src): 0.551
- phosphorylation enrichment (Fyn): 0.466
- phosphorylation enrichment (MERTK): 6.43
- phosphorylation enrichment (EPHB2): 0.693
- phosphorylation enrichment (FGFR3): 0.708
- phosphorylation enrichment (Fer (mouse)): 0.399
- phosphorylation enrichment (EPHB1): 0.541
- phosphorylation enrichment (Hck): 0.559
- phosphorylation enrichment (FGFR1): 0.665
- phosphorylation enrichment (Jak2): 0.713
- phosphorylation enrichment (Fes): 0.697

- SH2 binding enrichment (SHP2-C SH2): 0.935
- SH2 binding enrichment (Grb2 SH2): 0.706
- SH2 binding enrichment (c-Src SH2): 0.49
Sequence: FHLGKYLQEVL [KLB_Y910_Y906H_YF]
- phosphorylation enrichment (AncSZ): 1.58
- phosphorylation enrichment (c-Abl (mouse)): 1.01
- phosphorylation enrichment (c-Src): 0.491
- phosphorylation enrichment (Fyn): 0.346
- phosphorylation enrichment (MERTK): 0.428
- phosphorylation enrichment (EPHB2): 0.514
- phosphorylation enrichment (FGFR3): 0.788
- phosphorylation enrichment (Fer (mouse)): 0.48
- phosphorylation enrichment (EPHB1): 0.415
- phosphorylation enrichment (Hck): 0.591
- phosphorylation enrichment (FGFR1): 0.415
- phosphorylation enrichment (Jak2): 1.36
- phosphorylation enrichment (Fes): 1.52

- SH2 binding enrichment (SHP2-C SH2): 0.525
- SH2 binding enrichment (Grb2 SH2): 0.797
- SH2 binding enrichment (c-Src SH2): 0.405
Sequence: MKSIKYMDKEI [CCDC60_Y41]
- phosphorylation enrichment (AncSZ): 0.578
- phosphorylation enrichment (c-Abl (mouse)): 0.457
- phosphorylation enrichment (c-Src): 0.447
- phosphorylation enrichment (Fyn): 0.375
- phosphorylation enrichment (MERTK): 0.44
- phosphorylation enrichment (EPHB2): 0.392
- phosphorylation enrichment (FGFR3): 0.389
- phosphorylation enrichment (Fer (mouse)): 0.514
- phosphorylation enrichment (EPHB1): 0.399
- phosphorylation enrichment (Hck): 0.402
- phosphorylation enrichment (FGFR1): 0.452
- phosphorylation enrichment (Jak2): 0.603
- phosphorylation enrichment (Fes): 0.569
